# Results: US20200283521A1 (GRANULAR THERAPEUTICS, published 2020)
# B1: MH5.3 (antibody, IgG1, V domains shown)
# VH: QVQLVQSGAEVKKPGASVKVSCKASGYTFTDHYMNWVRQAPGQGLEWMGRIYPGTGNTYYAQKFQGRVTMTRDTSTSTVYMELSSLRSEDTAVYYCARGVWYYDYWGQGTLVTVSS
# VL: DIQMTQSPSSLSASVGDRVTITCRASQGIRTNLAWFQQKPGKAPKSLIYAASSLQSGVPSRFSGSGSGTDFTLTISSLQPEDFATYYCQQYANYPRTFGGGTKVEIK
# notes: IgG1
# B2: MH5.5 (antibody, IgG1, V domains shown)
# VH: QVQLVQSGAEVKKPGASVKVSCKASGYTFTDHYMNWVRQAPGQGLEWMGRIYPGTGNTYYAQKFQGRVTMTRDTSTSTVYMELSSLRSEDTAVYYCARGVWYFDTWGQGTLVTVSS
# VL: DIQMTQSPSSLSASVGDRVTITCRASQGIRTNLAWFQQKPGKAPKSLIYAASSLQSGVPSRFSGSGSGTDFTLTISSLQPEDFATYYCQQYANYPRTFGGGTKVEIK
# notes: IgG1
# B3: MH5.7 (antibody, IgG1, V domains shown)
# VH: QVQLVQSGAEVKKPGASVKVSCKASGYTFTDHYMNWVRQAPGQGLEWMGRIYPGAGNTYYAQKFQGRVTMTRDTSTSTVYMELSSLRSEDTAVYYCARGVWYYDYWGQGTLVTVSS
# VL: DIQMTQSPSSLSASVGDRVTITCRASQGIRTNLAWFQQKPGKAPKSLIYAASSLQSGVPSRFSGSGSGTDFTLTISSLQPEDFATYYCQQYANYPRTFGGGTKVEIK
# notes: IgG1
# B4: MH5.8 (antibody, IgG1, V domains shown)
# VH: QVQLVQSGAEVKKPGASVKVSCKASGYTFTDHYMNWVRQAPGQGLEWMGRIYPGAGNTYYAQKFQGRVTMTRDTSTSTVYMELSSLRSEDTAVYYCARGVWYFDSWGQGTLVTVSS
# VL: DIQMTQSPSSLSASVGDRVTITCRASQGIRTNLAWFQQKPGKAPKSLIYAASSLQSGVPSRFSGSGSGTDFTLTISSLQPEDFATYYCQQYANYPRTFGGGTKVEIK
# notes: IgG1
# B5: MH5.9 (antibody, IgG1, V domains shown)
# VH: QVQLVQSGAEVKKPGASVKVSCKASGYTFTDHYMNWVRQAPGQGLEWMGRIYPGAGNTYYAQKFQGRVTMTRDTSTSTVYMELSSLRSEDTAVYYCARGVWYFDTWGQGTLVTVSS
# VL: DIQMTQSPSSLSASVGDRVTITCRASQGIRTNLAWFQQKPGKAPKSLIYAASSLQSGVPSRFSGSGSGTDFTLTISSLQPEDFATYYCQQYANYPRTFGGGTKVEIK
# notes: IgG1
# B6: MH5.11 (antibody, IgG1, V domains shown)
# VH: QVQLVQSGAEVKKPGASVKVSCKASGYTFTDHYMNWVRQAPGQGLEWMGRIYPASGNTYYAQKFQGRVTMTRDTSTSTVYMELSSLRSEDTAVYYCARGVWYYDYWGQGTLVTVSS
# VL: DIQMTQSPSSLSASVGDRVTITCRASQGIRTNLAWFQQKPGKAPKSLIYAASSLQSGVPSRFSGSGSGTDFTLTISSLQPEDFATYYCQQYANYPRTFGGGTKVEIK
# notes: IgG1
# B7: MH5.12 (antibody, IgG1, V domains shown)
# VH: QVQLVQSGAEVKKPGASVKVSCKASGYTFTDHYMNWVRQAPGQGLEWMGRIYPASGNTYYAQKFQGRVTMTRDTSTSTVYMELSSLRSEDTAVYYCARGVWYFDSWGQGTLVTVSS
# VL: DIQMTQSPSSLSASVGDRVTITCRASQGIRTNLAWFQQKPGKAPKSLIYAASSLQSGVPSRFSGSGSGTDFTLTISSLQPEDFATYYCQQYANYPRTFGGGTKVEIK
# notes: IgG1
# B8: MH5.13 (antibody, IgG1, V domains shown)
# VH: QVQLVQSGAEVKKPGASVKVSCKASGYTFTDHYMNWVRQAPGQGLEWMGRIYPASGNTYYAQKFQGRVTMTRDTSTSTVYMELSSLRSEDTAVYYCARGVWYFDTWGQGTLVTVSS
# VL: DIQMTQSPSSLSASVGDRVTITCRASQGIRTNLAWFQQKPGKAPKSLIYAASSLQSGVPSRFSGSGSGTDFTLTISSLQPEDFATYYCQQYANYPRTFGGGTKVEIK
# notes: IgG1
# B9: MH5.14 (antibody, IgG1, V domains shown)
# VH: QVQLVQSGAEVKKPGASVKVSCKASGYTFTDHYMNWVRQAPGQGLEWMGRIYPASGNTYYAQKFQGRVTMTRDTSTSTVYMELSSLRSEDTAVYYCARGVWYFDEWGQGTLVTVSS
# VL: DIQMTQSPSSLSASVGDRVTITCRASQGIRTNLAWFQQKPGKAPKSLIYAASSLQSGVPSRFSGSGSGTDFTLTISSLQPEDFATYYCQQYANYPRTFGGGTKVEIK
# notes: IgG1
# B10: MH5.16 (antibody, IgG1, V domains shown)
# VH: QVQLVQSGAEVKKPGASVKVSCKASGYTFTDFYMNWVRQAPGQGLEWMGRIYPGTGNTYYAQKFQGRVTMTRDTSTSTVYMELSSLRSEDTAVYYCARGVWYFDTWGQGTLVTVSS
# VL: DIQMTQSPSSLSASVGDRVTITCRASQGIRTNLAWFQQKPGKAPKSLIYAASSLQSGVPSRFSGSGSGTDFTLTISSLQPEDFATYYCQQYANYPRTFGGGTKVEIK
# notes: IgG1
# B11: MH5.17 (antibody, IgG1, V domains shown)
# VH: QVQLVQSGAEVKKPGASVKVSCKASGYTFTDFYMNWVRQAPGQGLEWMGRIYPGTGNTYYAQKFQGRVTMTRDTSTSTVYMELSSLRSEDTAVYYCARGVWYFDEWGQGTLVTVSS
# VL: DIQMTQSPSSLSASVGDRVTITCRASQGIRTNLAWFQQKPGKAPKSLIYAASSLQSGVPSRFSGSGSGTDFTLTISSLQPEDFATYYCQQYANYPRTFGGGTKVEIK
# notes: IgG1
# B12: MH5.18 (antibody, IgG1, V domains shown)
# VH: QVQLVQSGAEVKKPGASVKVSCKASGYTFTDFYMNWVRQAPGQGLEWMGRIYPGAGNTYYAQKFQGRVTMTRDTSTSTVYMELSSLRSEDTAVYYCARGVWYYDYWGQGTLVTVSS
# VL: DIQMTQSPSSLSASVGDRVTITCRASQGIRTNLAWFQQKPGKAPKSLIYAASSLQSGVPSRFSGSGSGTDFTLTISSLQPEDFATYYCQQYANYPRTFGGGTKVEIK
# notes: IgG1
# B13: MH5.19 (antibody, IgG1, V domains shown)
# VH: QVQLVQSGAEVKKPGASVKVSCKASGYTFTDFYMNWVRQAPGQGLEWMGRIYPGAGNTYYAQKFQGRVTMTRDTSTSTVYMELSSLRSEDTAVYYCARGVWYFDSWGQGTLVTVSS
# VL: DIQMTQSPSSLSASVGDRVTITCRASQGIRTNLAWFQQKPGKAPKSLIYAASSLQSGVPSRFSGSGSGTDFTLTISSLQPEDFATYYCQQYANYPRTFGGGTKVEIK
# notes: IgG1
# B14: MH5.20 (antibody, IgG1, V domains shown)
# VH: QVQLVQSGAEVKKPGASVKVSCKASGYTFTDFYMNWVRQAPGQGLEWMGRIYPGAGNTYYAQKFQGRVTMTRDTSTSTVYMELSSLRSEDTAVYYCARGVWYFDTWGQGTLVTVSS
# VL: DIQMTQSPSSLSASVGDRVTITCRASQGIRTNLAWFQQKPGKAPKSLIYAASSLQSGVPSRFSGSGSGTDFTLTISSLQPEDFATYYCQQYANYPRTFGGGTKVEIK
# notes: IgG1
# B15: MH5.21 (antibody, IgG1, V domains shown)
# VH: QVQLVQSGAEVKKPGASVKVSCKASGYTFTDFYMNWVRQAPGQGLEWMGRIYPGAGNTYYAQKFQGRVTMTRDTSTSTVYMELSSLRSEDTAVYYCARGVWYFDEWGQGTLVTVSS
# VL: DIQMTQSPSSLSASVGDRVTITCRASQGIRTNLAWFQQKPGKAPKSLIYAASSLQSGVPSRFSGSGSGTDFTLTISSLQPEDFATYYCQQYANYPRTFGGGTKVEIK
# notes: IgG1
# B16: MH5.25 (antibody, IgG1, V domains shown)
# VH: QVQLVQSGAEVKKPGASVKVSCKASGYTFTDFYMNWVRQAPGQGLEWMGRIYPASGNTYYAQKFQGRVTMTRDTSTSTVYMELSSLRSEDTAVYYCARGVWYFDEWGQGTLVTVSS
# VL: DIQMTQSPSSLSASVGDRVTITCRASQGIRTNLAWFQQKPGKAPKSLIYAASSLQSGVPSRFSGSGSGTDFTLTISSLQPEDFATYYCQQYANYPRTFGGGTKVEIK
# notes: IgG1
# B17: MH5.26 (antibody, IgG1, V domains shown)
# VH: QVQLVQSGAEVKKPGASVKVSCKASGYTFTNYYMNWVRQAPGQGLEWMGRIYPGTGNTYYAQKFQGRVTMTRDTSTSTVYMELSSLRSEDTAVYYCARGVWYFDSWGQGTLVTVSS
# VL: DIQMTQSPSSLSASVGDRVTITCRASQGIRTNLAWFQQKPGKAPKSLIYAASSLQSGVPSRFSGSGSGTDFTLTISSLQPEDFATYYCQQYANYPRTFGGGTKVEIK
# notes: IgG1
# B18: MH5.27 (antibody, IgG1, V domains shown)
# VH: QVQLVQSGAEVKKPGASVKVSCKASGYTFTNYYMNWVRQAPGQGLEWMGRIYPGTGNTYYAQKFQGRVTMTRDTSTSTVYMELSSLRSEDTAVYYCARGVWYFDTWGQGTLVTVSS
# VL: DIQMTQSPSSLSASVGDRVTITCRASQGIRTNLAWFQQKPGKAPKSLIYAASSLQSGVPSRFSGSGSGTDFTLTISSLQPEDFATYYCQQYANYPRTFGGGTKVEIK
# notes: IgG1
# B19: MH5.28 (antibody, IgG1, V domains shown)
# VH: QVQLVQSGAEVKKPGASVKVSCKASGYTFTNYYMNWVRQAPGQGLEWMGRIYPGTGNTYYAQKFQGRVTMTRDTSTSTVYMELSSLRSEDTAVYYCARGVWYFDEWGQGTLVTVSS
# VL: DIQMTQSPSSLSASVGDRVTITCRASQGIRTNLAWFQQKPGKAPKSLIYAASSLQSGVPSRFSGSGSGTDFTLTISSLQPEDFATYYCQQYANYPRTFGGGTKVEIK
# notes: IgG1
# B20: MH5.29 (antibody, IgG1, V domains shown)
# VH: QVQLVQSGAEVKKPGASVKVSCKASGYTFTNYYMNWVRQAPGQGLEWMGRIYPGAGNTYYAQKFQGRVTMTRDTSTSTVYMELSSLRSEDTAVYYCARGVWYYDYWGQGTLVTVSS
# VL: DIQMTQSPSSLSASVGDRVTITCRASQGIRTNLAWFQQKPGKAPKSLIYAASSLQSGVPSRFSGSGSGTDFTLTISSLQPEDFATYYCQQYANYPRTFGGGTKVEIK
# notes: IgG1
# B21: MH5.30 (antibody, IgG1, V domains shown)
# VH: QVQLVQSGAEVKKPGASVKVSCKASGYTFTNYYMNWVRQAPGQGLEWMGRIYPGAGNTYYAQKFQGRVTMTRDTSTSTVYMELSSLRSEDTAVYYCARGVWYFDSWGQGTLVTVSS
# VL: DIQMTQSPSSLSASVGDRVTITCRASQGIRTNLAWFQQKPGKAPKSLIYAASSLQSGVPSRFSGSGSGTDFTLTISSLQPEDFATYYCQQYANYPRTFGGGTKVEIK
# notes: IgG1
# B22: MH5.31 (antibody, IgG1, V domains shown)
# VH: QVQLVQSGAEVKKPGASVKVSCKASGYTFTNYYMNWVRQAPGQGLEWMGRIYPGAGNTYYAQKFQGRVTMTRDTSTSTVYMELSSLRSEDTAVYYCARGVWYFDTWGQGTLVTVSS
# VL: DIQMTQSPSSLSASVGDRVTITCRASQGIRTNLAWFQQKPGKAPKSLIYAASSLQSGVPSRFSGSGSGTDFTLTISSLQPEDFATYYCQQYANYPRTFGGGTKVEIK
# notes: IgG1
# Target: T1, human C-KIT-Fc (human, UniProt P10721 26-524)
# T1 construct: also called biotinylated human C-KIT-Fc; not shown: Fc part not described
# Assay: direct ELISA;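 note: Plate-coated C-KIT-Fc (1 µg/ml) probed with antibodies for 1 hr, bound IgG detected via anti-human kappa-HRP and TMB, absorbance measured at 450 nm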
row,Binder,binding result
1,B1,binds
2,B2,binds
3,B3,binds
4,B4,binds
5,B5,binds
6,B6,binds
7,B7,binds
8,B8,binds
9,B9,binds
10,B10,binds
11,B11,binds
12,B12,binds
13,B13,binds
14,B14,binds
15,B15,binds
16,B16,binds
17,B17,binds
18,B18,binds
19,B19,binds
20,B20,binds
21,B21,binds
22,B22,binds
